Experimental data taken from publication PMC9621694 (2022).

What was measured:
Assay in all cases: SPR
rsvfv_hal_1 = biological target: rsvfv_hal_1
rsvfv_hal_3 = biological target: rsvfv_hal_3
rsvfv_hal_2 = biological target: rsvfv_hal_2

B1: neutralizing antibody hRSV90 (antibody, V domains shown)
VH: EVQLVESGGGLVQPRRSLRLSCAASGFTFDDYTIHWVRQAPGKGLEWVSGITWNSGYIGYADSVKGRFTISRDNARNSLYLQMNSLRAEDTALYYCVRDAYVSGSDYYYYGLDVWGRGTLVTVSS
VL: EIVMTSSPATLSVSPGERVTLFCRASQSVISNLAWYQQKSGQAPRLLIYGASTRATGIPSRFSGSGSGTEFTLTISSLQSEDFAVYFCQQYNNWPLTFGGGTQVNVQ
Question: For B1, which Kd (rsvfv_hal_1) is on record?
Answer: 900 nM

Question: What about the Kd (rsvfv_hal_3) of the same binder?
Answer: 1300 nM

Question: And the Kd (rsvfv_hal_2)?
Answer: 1000 nM
